# Results taken from patent US20090004210A1.
# What was measured:
# [1] = target: monoclonal antibody (mAb) to detect Aβ42-derived peptide species with free N-terminus (generated in Example 1); assay: competition ELISA: soluble peptide against plate-bound DAEFRH-C-BSA for the biotinylated mAb, FIG. 9
# [2] = target: monoclonal antibody (mAb) to detect Aβ42-derived peptide species with free N-terminus (generated in Example 1); assay: competition ELISA: soluble peptide against plate-bound DAEFRH-C-BSA for the biotinylated mAb, FIG. 7
# [3] = target: monoclonal antibody (mAb) to detect Aβ42-derived peptide species with free N-terminus (generated in Example 1); assay: competition ELISA: soluble peptide against plate-bound DAEFRH-C-BSA for the biotinylated mAb, FIG. 2
# [4] = target: monoclonal antibody (mAb) to detect Aβ42-derived peptide species with free N-terminus (generated in Example 1); assay: competition ELISA: soluble peptide against plate-bound DAEFRH-C-BSA for the biotinylated mAb, FIG. 8
# [5] = target: monoclonal antibody (mAb) to detect Aβ42-derived peptide species with free N-terminus (generated in Example 1); assay: competition ELISA: soluble peptide against plate-bound DAEFRH-C-BSA for the biotinylated mAb, FIG. 4
# [6] = target: monoclonal antibody (mAb) to detect Aβ42-derived peptide species with free N-terminus (generated in Example 1); assay: competition ELISA: soluble peptide against plate-bound DAEFRH-C-BSA for the biotinylated mAb, FIG. 3
# [7] = target: monoclonal antibody (mAb) to detect Aβ42-derived peptide species with free N-terminus (generated in Example 1); assay: competition ELISA: soluble peptide against plate-bound DAEFRH-C-BSA for the biotinylated mAb, FIG. 5
molecule,measurement,setting,value
Peptide 4063 DKE(Nva)R,IC50,[1],> 0.5 µg/mL
Peptide 4062 DKE(Nle)R,IC50,[1],> 0.5 µg/mL
Peptide 4064 DKE(Cha)R,IC50,[1],> 0.5 µg/mL
SVEFRYHC [Peptide 4021 SVEFRYH],IC50,[2],< 0.5 µg/mL
EAEFRGC [Peptide 3006 EAEFRG],IC50,[3],< 0.5 µg/mL
DAELRYC [Peptide 4031 DAELRY],IC50,[4],< 0.5 µg/mL
SSEFRVSC [Peptide 4024 SSEFRVS],IC50,[2],< 0.5 µg/mL
GPEFRWC [Peptide 4034 GPEFRW],IC50,[4],< 0.5 µg/mL
SWEFRTC [Peptide 4002 SWEFRT],IC50,[5],< 0.4 µg/mL
SYEFRHHC [Peptide 4022 SYEFRHH],IC50,[2],< 0.5 µg/mL
DYEFRGC [Peptide 3007 DYEFRG],IC50,[3],< 0.5 µg/mL
ELEFRGC [Peptide 3008 ELEFRG],IC50,[6],< 5 µg/mL
YAEFRGC [Peptide 3005 YAEFRG],IC50,[3],> 0.5 µg/mL
SFEFRGC [Peptide 3009 SFEFRG],IC50,[6],< 5 µg/mL
DWEFRDC [Peptide 4025 DWEFRD],IC50,[2],< 0.5 µg/mL
GKEFRTC [Peptide 4035 GKEFRT],IC50,[4],< 0.5 µg/mL
EYEFRGC [Peptide 1239 EYEFRG],IC50,[7],> 0.5 µg/mL
AYEFRHC [Peptide 4036 AYEFRH],IC50,[4],> 0.5 µg/mL
SWELRQAC [Peptide 4020 SWELRQA],IC50,[2],> 0.5 µg/mL
DKELRIC [Peptide 3001 DKELRI],IC50,[3],< 0.5 µg/mL
DKELRC [Peptide 1238 DKELR],IC50,[7],< 0.5 µg/mL
DWELRIC [Peptide 3002 DWELRI],IC50,[3],> 0.5 µg/mL
DRELKIC [Peptide 1237 DRELKI],IC50,[7],> 5 µg/mL
DWEFRDAC [Peptide 1241 DWEFRDA],IC50,[7],< 0.5 µg/mL
DRELRIC [Peptide 1235 DRELRI],IC50,[7],< 0.5 µg/mL
DWELRQC [Peptide 4032 DWELRQ],IC50,[4],< 0.5 µg/mL
SQEFRTPC [Peptide 4023 SQEFRTP],IC50,[2],< 0.5 µg/mL
DKELKIC [Peptide 1236 DKELKI],IC50,[7],> 5 µg/mL
SLEFRFC [Peptide 4033 SLEFRF],IC50,[4],< 0.5 µg/mL
